T1: human CLEC12a expressed on transiently transfected HEK 293 cells (human, UniProt Q5QGZ9 1-265)
T1 construct: also called CLL-1; CLL1
T1 sequence: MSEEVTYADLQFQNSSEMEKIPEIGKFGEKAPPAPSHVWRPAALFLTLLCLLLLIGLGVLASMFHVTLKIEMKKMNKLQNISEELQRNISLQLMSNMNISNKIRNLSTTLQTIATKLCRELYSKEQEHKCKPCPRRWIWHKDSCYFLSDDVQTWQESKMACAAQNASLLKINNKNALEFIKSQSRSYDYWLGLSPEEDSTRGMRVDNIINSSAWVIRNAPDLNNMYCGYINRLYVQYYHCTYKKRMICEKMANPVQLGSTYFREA

T2: mFc-CLEC12a-ECD (human)
T2 construct: It was immobilized on anti-mFc capture sensors for BLI; also called CLEC12a antigen
T2 chain: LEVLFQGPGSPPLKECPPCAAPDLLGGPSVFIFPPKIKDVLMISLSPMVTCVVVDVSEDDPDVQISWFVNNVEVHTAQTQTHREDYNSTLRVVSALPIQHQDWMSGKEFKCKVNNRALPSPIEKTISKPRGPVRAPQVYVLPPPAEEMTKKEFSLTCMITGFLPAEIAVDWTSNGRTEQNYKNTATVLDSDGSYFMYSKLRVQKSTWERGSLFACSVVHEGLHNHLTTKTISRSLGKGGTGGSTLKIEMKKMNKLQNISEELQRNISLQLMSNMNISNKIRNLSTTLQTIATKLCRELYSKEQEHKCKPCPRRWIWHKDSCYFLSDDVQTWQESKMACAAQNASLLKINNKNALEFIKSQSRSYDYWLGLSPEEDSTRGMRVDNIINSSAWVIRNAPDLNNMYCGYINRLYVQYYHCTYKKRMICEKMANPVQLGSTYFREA


Tests used:
[1] = biological target: T1, human CLEC12a expressed on transiently …; assay: flow cytometry on HEK 293 cells transiently transfected with human CLEC12a, Alexa Fluor 647 anti-human IgG secondary, median fluorescence
Protocol: (§1) Binding of sdAbs to human CLEC12a was assessed by flow cytometry. […] HEK 293 cells were transiently transfected with a plasmid encoding CLEC12a (UniProt Accession No. Q5QGZ9.3; SEQ ID NO: 1) and used as the positive cell line, and untransfected HEK 293 cells were used as CLEC12a-negative cells. Each cell type was plated at 30,000 cells/well in FACS buffer (PBS 1% BSA, 0.1% NaN₃ pH 7.4) on a 96-well round-bottom plate. The sdAbs were diluted in FACS buffer in a 3-fold, 11 point serial dilution. The sdAb dilutions were added to the plated cells, and assay plates were incubated for 30 minutes at 4° C. After washing twice in 150 μL of FACS buffer, cells in each well were resuspended in 100 μL of 1:2000 Alexa Fluor 647-conjugated Anti-Human IgG secondary diluted in FACS buffer and incubated at 4° C. for 30 minutes. The cells were washed twice more, then bound antibody was detected by flow cytometry.
(§2) Flow cytometric analysis was performed on an Intellicyte iQue Plus and fluorescence was plotted as median fluorescence intensity. The apparent affinity (Kd, nM) was determined using one site binding non-linear regression in PRISM graph software.

[2] = biological target: T1, human CLEC12a expressed on transiently …; assay: flow cytometry on HEK 293 cells transfected with human CLEC12a; apparent Kd, one-site fit
Protocol: as §1, §2

mFc-CLEC12a-ECD [3] = biological target: T2, mFc-CLEC12a-ECD; assay: BLI, mFc-CLEC12a-ECD on anti-mFc sensors first loaded with 100 nM hzMB11v13, then 100 nM second sdAb
Protocol: (§3) The epitopes of single domain antibodies (sdAbs) that comprise VHH domains that bind CLEC12a were compared using Bio-Layer Interferometry. 7 μg/mL of mFc-CLEC12a-ECD (SEQ ID NO: 87) was immobilized on anti-mFc coated capture sensors. 100 nM of one sdAb was then loaded onto the CLEC12a antigen and allowed to come to equilibrium. The sensors were then transferred into 100 nM of a second sdAb.

mFc-CLEC12a-ECD [4] = biological target: T2, mFc-CLEC12a-ECD; assay: BLI epitope binning; mFc-CLEC12a-ECD on anti-mFc sensors, 100 nM sdAb
Protocol: as §3

Binder | EC50 (read off the curve) [1] | Kd [2] | binding result (mFc-CLEC12a-ECD [3]) | binding result (mFc-CLEC12a-ECD [4])
ME02 sdAb (VHH ME02 fused to human IgG1 xELL Fc) (Fc fusion, Camelid parental VHH; No linker is stated; also called ME02-IgG1) QVQLQQSGGGLVQVGGSQRLSCAASGRTFEYDDMVWFRQAPGKEREEVAGISWSGGSIYYADSVKGRFSISRDNAKNTVYLEMNRLKPEDTAVYYCNVGSYWGQGTQVTVDKTHTCPPCPAPGGPSVFLFPPKPKDTLMISRTPEVTCVVVDVSHEDPEVKFNWYVDGVEVHNAKTKPREEQYNSTYRVVSVLTVLHQDWLNGKEYKCKVSNKALPAPIEKTISKAKGQPREPQVYTLPPSRDELTKNQVSLTCLVKGFYPSDIAVEWESNGQPENNYKTTPPVLDSDGSFFLYSKLTVDKSRWQQGNVFSCSVMHEALHNHYTQKSLSLSPGK | ~1 nM | 1.2 nM | – | –
hzME02v4 sdAb (VHH hzME02v4 fused to human IgG1 xELL Fc) (Fc fusion, Humanized version of ME02; No linker is stated; also called hzME02v4-IgG1) EVQLVESGGGEVQPGGSLRLSCAASGRTFEYDDMVWFRQAPGKEREEVAGISWSGGSIYYAESVKGRFSISRDNAKNTVYLEMNRLKPEDTAVYYCNVGSYWGQGTLVTVDKTHTCPPCPAPGGPSVFLFPPKPKDTLMISRTPEVTCVVVDVSHEDPEVKFNWYVDGVEVHNAKTKPREEQYNSTYRVVSVLTVLHQDWLNGKEYKCKVSNKALPAPIEKTISKAKGQPREPQVYTLPPSRDELTKNQVSLTCLVKGFYPSDIAVEWESNGQPENNYKTTPPVLDSDGSFFLYSKLTVDKSRWQQGNVFSCSVMHEALHNHYTQKSLSLSPGK | ~0.8 nM | 0.87 nM | binds | –
MH07 sdAb (VHH MH07 fused to human IgG1 xELL Fc) (Fc fusion, Camelid parental VHH; No linker is stated; also called MH07-IgG1) QVQLVQSGGGLVQPGGSLRLSCVASGLLFSIYDMNWYRQAPGKEREWIAGITNNGYSTAYTDSVQGRFTISRDNAKNTVYLQMNSLKPEDTAVYYCHTDEWGREYWGQGTQVTVDKTHTCPPCPAPGGPSVFLFPPKPKDTLMISRTPEVTCVVVDVSHEDPEVKFNWYVDGVEVHNAKTKPREEQYNSTYRVVSVLTVLHQDWLNGKEYKCKVSNKALPAPIEKTISKAKGQPREPQVYTLPPSRDELTKNQVSLTCLVKGFYPSDIAVEWESNGQPENNYKTTPPVLDSDGSFFLYSKLTVDKSRWQQGNVFSCSVMHEALHNHYTQKSLSLSPGK | – | 0.1 nM | – | –
hzMH07v3 sdAb (VHH hzMH07v3 fused to human IgG1 xELL Fc) (Fc fusion, Humanized version of MH07; No linker is stated; also called hzMH07v3-IgG1; haMH07v3) EVQLVESGGGEVQPGGSLRLSCAASGLLFSIYDMNWYRQAPGKEREWVAGITNNGYSTAYAESVKGRFTISRDNAKNTVYLQMSSLRAEDTAVYYCHTDEWGREYWGQGTLVTVDKTHTCPPCPAPGGPSVFLFPPKPKDTLMISRTPEVTCVVVDVSHEDPEVKFNWYVDGVEVHNAKTKPREEQYNSTYRVVSVLTVLHQDWLNGKEYKCKVSNKALPAPIEKTISKAKGQPREPQVYTLPPSRDELTKNQVSLTCLVKGFYPSDIAVEWESNGQPENNYKTTPPVLDSDGSFFLYSKLTVDKSRWQQGNVFSCSVMHEALHNHYTQKSLSLSPGK | – | 0.28 nM | – | binds
ME06 sdAb (VHH ME06 fused to human IgG1 xELL Fc) (Fc fusion, Camelid parental VHH; No linker is stated; also called ME06-IgG1) QVQLVQSGGGLVQAGGSLRLSCVASGFTFDDYAIGWFRQAPGKEREGVSCISNSDGSTYYADSVKGRFTISSDNAKNTVYLHVNSLNPEDTAVYYCALREGLPLLLDSLWRQPVEYDYWGQGTQVTVDKTHTCPPCPAPGGPSVFLFPPKPKDTLMISRTPEVTCVVVDVSHEDPEVKFNWYVDGVEVHNAKTKPREEQYNSTYRVVSVLTVLHQDWLNGKEYKCKVSNKALPAPIEKTISKAKGQPREPQVYTLPPSRDELTKNQVSLTCLVKGFYPSDIAVEWESNGQPENNYKTTPPVLDSDGSFFLYSKLTVDKSRWQQGNVFSCSVMHEALHNHYTQKSLSLSPGK | – | 0.05 nM | – | –
MC06 sdAb (VHH MC06 fused to human IgG1 xELL Fc) (Fc fusion, Camelid parental VHH; No linker is stated; also called MC06-IgG1) QVQLQESGGGLVQPGGSLRLSCAASGFTFSVYDMNWYRQTPGKEREWVAGISNNGFSTAYAGSVKGRFTISRDNAENTVYLQMNSLKSEDTAVYYCNLDVHGRVGAQGDYWGQGTQVTVDKTHTCPPCPAPGGPSVFLFPPKPKDTLMISRTPEVTCVVVDVSHEDPEVKFNWYVDGVEVHNAKTKPREEQYNSTYRVVSVLTVLHQDWLNGKEYKCKVSNKALPAPIEKTISKAKGQPREPQVYTLPPSRDELTKNQVSLTCLVKGFYPSDIAVEWESNGQPENNYKTTPPVLDSDGSFFLYSKLTVDKSRWQQGNVFSCSVMHEALHNHYTQKSLSLSPGK | 1 to 2 nM | 1.58 nM | – | –
hzMC06v2 sdAb (VHH hzMC06v2 fused to human IgG1 xELL Fc) (Fc fusion, Humanized version of MC06; No linker is stated; also called hzMC06v2-IgG1) EVQLVESGGGEVQPGGSLRLSCAASGFTFSVYDMNWYRQAPGKEREWVSGISNNGFSTAYAESVKGRFTISRDNAKNTLYLQMSSLRAEDTAVYYCNLDVHGRVGAQGDYWGQGTLVTVDKTHTCPPCPAPGGPSVFLFPPKPKDTLMISRTPEVTCVVVDVSHEDPEVKFNWYVDGVEVHNAKTKPREEQYNSTYRVVSVLTVLHQDWLNGKEYKCKVSNKALPAPIEKTISKAKGQPREPQVYTLPPSRDELTKNQVSLTCLVKGFYPSDIAVEWESNGQPENNYKTTPPVLDSDGSFFLYSKLTVDKSRWQQGNVFSCSVMHEALHNHYTQKSLSLSPGK | ~10 nM | 14 nM | – | binds
hzME06v16 sdAb (VHH hzME06v16 fused to human IgG1 xELL Fc) (Fc fusion, Humanized version of ME06; No linker is stated; also called hzME06v16-IgG1) EVQLVESGGGEVQPGGSLRLSCAASGFTFDDYAIGWFRQAPGKEREGVSTISSSDGSTYYAESVKGRFTISRDNAKNTVYLQMSSLRAEDTAVYYCALREGLPLLLDTLWRQPVEYDYWGQGTQVTVDKTHTCPPCPAPGGPSVFLFPPKPKDTLMISRTPEVTCVVVDVSHEDPEVKFNWYVDGVEVHNAKTKPREEQYNSTYRVVSVLTVLHQDWLNGKEYKCKVSNKALPAPIEKTISKAKGQPREPQVYTLPPSRDELTKNQVSLTCLVKGFYPSDIAVEWESNGQPENNYKTTPPVLDSDGSFFLYSKLTVDKSRWQQGNVFSCSVMHEALHNHYTQKSLSLSPGK | – | 0.06 nM | binds | –
MC02 sdAb (VHH MC02 fused to human IgG1 xELL Fc) (Fc fusion, Camelid parental VHH; No linker is stated; also called MC02-IgG1) QVQLVQSGGGLAQPGGSLRLSCTASGFTFRINDMGWYRQAPGKECEMVAGISNNGFSTAYADSVKGRFTISRDNAKNTVSLQMDSLKSEDTAVYYCHRTDDGAAHACSRGQGTQVTVDKTHTCPPCPAPGGPSVFLFPPKPKDTLMISRTPEVTCVVVDVSHEDPEVKFNWYVDGVEVHNAKTKPREEQYNSTYRVVSVLTVLHQDWLNGKEYKCKVSNKALPAPIEKTISKAKGQPREPQVYTLPPSRDELTKNQVSLTCLVKGFYPSDIAVEWESNGQPENNYKTTPPVLDSDGSFFLYSKLTVDKSRWQQGNVFSCSVMHEALHNHYTQKSLSLSPGK | – | 0.37 nM | – | –
hzMC02v6 sdAb (VHH hzMC02v6 fused to human IgG1 xELL Fc) (Fc fusion, Humanized version of MC02; No linker is stated; also called hzMC02v6-IgG1) EVQLVESGGGEVQPGGSLRLSCAASGFTFRINDMGWYRQAPGKECEMVAGISNNGFSTAYAESVKGRFTISRDNAKNTVYLQMSSLRAEDTAVYYCHRTDEGAAHACSRGQGTLVTVDKTHTCPPCPAPGGPSVFLFPPKPKDTLMISRTPEVTCVVVDVSHEDPEVKFNWYVDGVEVHNAKTKPREEQYNSTYRVVSVLTVLHQDWLNGKEYKCKVSNKALPAPIEKTISKAKGQPREPQVYTLPPSRDELTKNQVSLTCLVKGFYPSDIAVEWESNGQPENNYKTTPPVLDSDGSFFLYSKLTVDKSRWQQGNVFSCSVMHEALHNHYTQKSLSLSPGK | – | 0.35 nM | – | binds
MB11 sdAb (VHH MB11 fused to human IgG1 xELL Fc) (Fc fusion, Camelid parental VHH; No linker between VHH and Fc is stated; Fc dimers are described only in general terms; also called MB11-IgG1) QVQLQQSGGGLVQPGGSLRLSCVASGFLFSIYDMNWYRQAPGKEREWIAGITNNGYSTAYTDSVQGRFTISRDNAKNTIYLQMTSLKPEDTAVYYCHADLTKCYDGEYAWGQGTQVTVDKTHTCPPCPAPGGPSVFLFPPKPKDTLMISRTPEVTCVVVDVSHEDPEVKFNWYVDGVEVHNAKTKPREEQYNSTYRVVSVLTVLHQDWLNGKEYKCKVSNKALPAPIEKTISKAKGQPREPQVYTLPPSRDELTKNQVSLTCLVKGFYPSDIAVEWESNGQPENNYKTTPPVLDSDGSFFLYSKLTVDKSRWQQGNVFSCSVMHEALHNHYTQKSLSLSPGK | ~50 nM | 58.6 nM | – | –
